In publication PMC11604724 (MedComm, 2024):

Columns and labels:
[1] = target: SARS‐CoV‐2 N‐terminal domain (NTD) protein (SARS-CoV-2 WT, UniProt P0DTC2, N-linked glycans (complex glycosylation, migrates at 40-70 kDa)); test: ELISA; details: both partners purified
[2] = target: Horseradish peroxidase (HRP)‐labeled NTD protein (SARS-CoV-2, WT assumed, UniProt P0DTC2, horseradish peroxidase (HRP) label); test: ELISA; details: both partners purified
[3] = target: PNGase F‐treated NTD protein (SARS-CoV-2 WT, UniProt P0DTC2, N-linked glycans removed with PNGase F (nearly complete deglycosylation)); test: ELISA; details: both partners purified
[4] = target: SARS‐CoV‐2 (WT) spike expressed on HEK293T cells (SARS-CoV-2, UniProt P0DTC2); test: flow cytometry on cells; details: one partner purified

Measured: binding result

B1: mAb 3711 (antibody, V domains shown)
VH: EVQLVESGGGLVKPGRSLRLSCAASGFTFSDYYMSWIRQAPGKGLEWVSYISSSGSTIYYADSVRGRFTISRDNAKNSLYLQMNTLRAEDTAVYYCARGGWELRSLAGGYYGMDVWGQGTTVTVSS
VL: DIVMTQTPFTLSASVGDRVTITCRASQGIRNDLGWYQQKPGKAPKCLIYAASSLLSGVPSRFSGSGSGTEFTLTISSLQPEDFATYYCLQHNSYPWTFGQGTKLEIK
binds: [1] | [2] | [3] | [4]
